Series [1] deals with T1, CST complex (CTC1-STN1-TEN1) (human, UniProt Q2NKJ3;Q9H668;Q86WV5 1-1217;1-368;1-123). Description: EMSA.
Series [2] has as its target T1, CST complex (CTC1-STN1-TEN1). Description: EMSA. This is another data set of the same source.
Series [3] has the same target. Description: EMSA. The source holds these as a separate data set.
Series [4] shares this target. Description: smFRET.
The target is the same in series [5]. Description: EMSA. This is another data set of the same source.
For series [6] the target is unchanged. Description: smFRET. The source holds these as a separate data set.
For series [7] the target is unchanged. As to the kind of experiment: EMSA. This is another data set of the same source.
Series [8] has the same target. As to the kind of experiment: EMSA. This is another data set of the same source.

T1 sequence (Q2NKJ3 whole entry, chain 1 of 3): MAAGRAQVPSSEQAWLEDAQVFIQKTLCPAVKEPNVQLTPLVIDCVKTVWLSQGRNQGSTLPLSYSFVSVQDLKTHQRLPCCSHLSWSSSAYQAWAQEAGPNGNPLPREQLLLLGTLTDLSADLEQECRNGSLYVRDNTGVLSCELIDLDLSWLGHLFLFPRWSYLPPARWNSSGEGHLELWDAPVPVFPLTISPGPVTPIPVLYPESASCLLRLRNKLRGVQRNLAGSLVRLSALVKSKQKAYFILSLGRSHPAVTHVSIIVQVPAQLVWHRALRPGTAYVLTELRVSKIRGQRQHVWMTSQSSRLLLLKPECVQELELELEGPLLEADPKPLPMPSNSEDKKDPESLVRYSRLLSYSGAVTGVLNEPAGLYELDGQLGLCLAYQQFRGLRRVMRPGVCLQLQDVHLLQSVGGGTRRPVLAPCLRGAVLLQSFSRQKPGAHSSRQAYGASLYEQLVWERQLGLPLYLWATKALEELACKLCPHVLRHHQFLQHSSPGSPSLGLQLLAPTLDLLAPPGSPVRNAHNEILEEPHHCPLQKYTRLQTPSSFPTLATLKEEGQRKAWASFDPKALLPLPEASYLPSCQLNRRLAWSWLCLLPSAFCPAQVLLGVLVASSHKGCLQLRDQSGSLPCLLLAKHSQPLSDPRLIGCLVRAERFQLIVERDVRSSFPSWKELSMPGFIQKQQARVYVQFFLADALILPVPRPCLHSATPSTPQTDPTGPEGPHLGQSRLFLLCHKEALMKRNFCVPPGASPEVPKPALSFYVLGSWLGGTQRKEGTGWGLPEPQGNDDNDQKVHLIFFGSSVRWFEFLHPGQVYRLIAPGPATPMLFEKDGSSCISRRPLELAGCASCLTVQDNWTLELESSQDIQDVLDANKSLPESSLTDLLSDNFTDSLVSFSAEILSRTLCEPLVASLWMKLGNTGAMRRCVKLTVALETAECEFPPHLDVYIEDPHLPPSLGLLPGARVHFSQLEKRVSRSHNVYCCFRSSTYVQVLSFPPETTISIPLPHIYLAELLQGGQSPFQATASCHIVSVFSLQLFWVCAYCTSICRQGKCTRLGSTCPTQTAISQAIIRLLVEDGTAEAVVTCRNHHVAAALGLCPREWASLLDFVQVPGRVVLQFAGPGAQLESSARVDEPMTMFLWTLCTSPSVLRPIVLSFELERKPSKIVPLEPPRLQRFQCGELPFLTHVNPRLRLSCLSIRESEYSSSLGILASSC
T1 sequence (Q9H668 whole entry, chain 2 of 3): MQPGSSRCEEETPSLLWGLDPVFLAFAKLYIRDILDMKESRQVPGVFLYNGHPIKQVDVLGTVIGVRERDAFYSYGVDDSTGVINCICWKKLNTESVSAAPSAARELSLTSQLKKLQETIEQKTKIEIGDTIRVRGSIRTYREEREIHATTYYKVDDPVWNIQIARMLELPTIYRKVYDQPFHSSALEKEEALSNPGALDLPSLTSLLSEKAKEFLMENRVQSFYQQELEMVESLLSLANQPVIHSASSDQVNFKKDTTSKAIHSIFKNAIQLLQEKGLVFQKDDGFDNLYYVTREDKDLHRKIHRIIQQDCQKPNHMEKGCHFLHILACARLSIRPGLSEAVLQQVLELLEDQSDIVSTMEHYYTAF
T1 sequence (Q86WV5 whole entry, chain 3 of 3): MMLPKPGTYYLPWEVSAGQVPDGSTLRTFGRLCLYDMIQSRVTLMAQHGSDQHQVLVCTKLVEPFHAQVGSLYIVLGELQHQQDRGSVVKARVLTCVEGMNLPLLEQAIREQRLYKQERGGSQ

B1: Non-Tel fold-back 18 nt 3' overhang (structured_DNA)
DNA: ACGACTGCATCTAGCTTTTTGCTAGATGCAGTCGTAGCGTATCCGTTCAGTTG
B1: the binding result in series [1] is given as “binds”.

B2: Two-oligonucleotide junction 32/22 (mixed)
DNA 1: GCGTACTCAGTGACTCAGATCGAGCGTATCCG
DNA 2: CGATCTGAGTCACTGAGTACGC
Regarding B2, the binding result in series [2] is given as “binds”.

In the case of TTAGGGTTAGGGTTAGGGTTAGGGAGCGTA (structured_DNA) [3G46], in series [3], the binding result is “binds”.

B3: Telomere fold-back 18 nt 3' overhang (structured_DNA)
DNA: CTAACCGCATCTAGCTTTTTGCTAGATGCGGTTAGGGTTAGGGTTAGGGTTAG
With B3, the binding result in series [1] is given as “binds”.

B4: smFRET 3G4-Cy3 (mixed)
DNA 1: TGGCGACGGCAGCGAGGCTTAGGGTTAGGGTTAGGGTTAGGG
DNA 2: GCCTCGCTGCCGTCGCCA
As to B4, the binding result in series [4] is on record as “binds”.

As to TTAGGGTTAGGGTTAGGGTTAGGGTTAGGG (structured_DNA) [3G5 (G5 in text)], the binding result in series [3] is on record as “binds”.

As for ACGACTGCATCTAGCTTTTTGCTAGATGCAGTCGT (structured_DNA) [Non-Tel fold-back (dsDNA), no overhang], in series [5], the binding result is given as “no binding”.

Consider TTAGGGTTAGGGTTAGGGTTAGGG (structured_DNA) [3G4], for which the binding result in series [3] is “binds”.

B5: smFRET 3G46-Cy3 (mixed)
DNA 1: TGGCGACGGCAGCGAGGCTTAGGGTTAGGGTTAGGGTTAGGGAGCGTA
DNA 2: GCCTCGCTGCCGTCGCCA
With B5, in series [4], the binding result was “binds”.

In the case of GGGTTAGGGTTAGGGTTAGGG (structured_DNA) [G4], the binding result in series [3] is given as “binds”.

B6: smFRET non-telomeric junction, 18 nt overhang (mixed)
DNA 1: TGGCGACGGCAGCGAGGCAGCGTATCCGTTCAGTTG
DNA 2: GCCTCGCTGCCGTCGCCA
Consider B6, for which the binding result in series [6] is “binds”.

For CGATCTGAGTCACTGAGTACGC (ssDNA) [Non-Tel 22], the binding result in series [7] was “no binding”.

Consider AGCGTATCCGTTCAGTTG (ssDNA) [Non-Tel 18], for which the binding result in series [5] was “no binding”.

With GGTTAGGGTTAGGGTTAG (ssDNA) [Tel 18], the binding result in series [8] is listed as “binds”.

B7: Mixed fold-back 18 nt 3' overhang (structured_DNA)
DNA: ACGACTGCATCTAGCTTTTTGCTAGATGCAGTCGTGGTTAGGGTTAGGGTTAG
In the case of B7, the binding result in series [5] was “binds”.

These data come from article PMC5716219.
